This data set deals with the molecule itself. In words: crystal structure.

Results on one protein are retold here after publication doi:10.1101/2020.06.18.159806 (bioRxiv, 2020).

For the protein LSEGLRESLSSYISLAEDP (domain or fragment, UniProt Q8R4L0 237-255, looked up) [C-terminal tail of mouse SLAP2 (residues 237-255)], the binding result is reported as “binds”.
